The results in this text go back to PMC12955206.

The data set deals with myeloperoxidase (MPO) (human, UniProt P05164 49-745). Nature of the data set: fluorescence strand displacement.
myeloperoxidase (MPO), sequence (P05164 49-745): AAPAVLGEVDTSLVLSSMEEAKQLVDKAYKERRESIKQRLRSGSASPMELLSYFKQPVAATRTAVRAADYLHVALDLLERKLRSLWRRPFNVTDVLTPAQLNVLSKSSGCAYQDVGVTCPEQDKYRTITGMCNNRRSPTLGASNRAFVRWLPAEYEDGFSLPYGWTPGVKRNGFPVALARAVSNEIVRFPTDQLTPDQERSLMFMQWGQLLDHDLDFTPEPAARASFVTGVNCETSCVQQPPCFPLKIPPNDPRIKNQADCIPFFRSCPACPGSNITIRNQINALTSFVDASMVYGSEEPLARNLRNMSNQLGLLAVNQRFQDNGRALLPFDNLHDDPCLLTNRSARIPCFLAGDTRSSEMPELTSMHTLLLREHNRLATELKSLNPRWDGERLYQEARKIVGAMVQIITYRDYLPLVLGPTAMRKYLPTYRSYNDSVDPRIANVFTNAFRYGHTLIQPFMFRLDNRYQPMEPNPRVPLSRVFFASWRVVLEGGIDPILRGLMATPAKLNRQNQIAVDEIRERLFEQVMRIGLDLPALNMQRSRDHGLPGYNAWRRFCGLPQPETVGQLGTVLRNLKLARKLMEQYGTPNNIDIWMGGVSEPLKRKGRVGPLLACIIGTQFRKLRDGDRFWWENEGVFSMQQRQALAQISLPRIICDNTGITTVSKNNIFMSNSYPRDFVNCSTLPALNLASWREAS

B1: AptCy3/TBHQ2 duplex (MPO aptamer with trigger strand) (mixed)
DNA 1: CACCTAATACGACTCACTATAGCGGATCCGAAACGCTATTCGGATGGGGTTCCAGATACTAGAAAGAGCAA
DNA 2: CATCCGAATAGCGTTTCGGATC
modifications: internal Cy3-dT at position 45 of the aptamer (Table S1)
As to B1, the binding result is listed as “binds”.
